In US20200040083A1:
“And” between values parts separate entries of the source, which are not always exact repeats. Equal entries are not always repeated.

Target: IL-2Rβ (R&D Systems, Minneapolis, Minn.) (UniProt P14784)
Assay: Octet (BLI), AHC capture
Settings: Fc fusion

Chain of IL-2Rβ (R&D Systems, Minneapolis, Minn.) (P14784 27-240): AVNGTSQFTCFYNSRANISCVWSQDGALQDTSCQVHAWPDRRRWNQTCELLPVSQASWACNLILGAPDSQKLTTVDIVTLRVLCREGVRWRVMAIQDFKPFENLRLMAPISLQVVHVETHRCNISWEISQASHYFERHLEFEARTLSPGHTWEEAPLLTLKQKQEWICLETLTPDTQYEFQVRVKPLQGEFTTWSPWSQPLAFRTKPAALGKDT

| Substance | Kd |
| --- | --- |
| XENP21478 (from UniProt P0DOX5 218-449) | 6.76 nM and 3 nM |
| XENP21479 (from UniProt P0DOX5 218-449; P40933 49-162) | 3.06 nM and 3 nM |
